Laboratory results reported in patent US20160368965A1 (IMMATICS BIOTECHNOLOGIES, published 2016).

biological target: T1, HLA-A*02:01 (human); assay: UV-ligand exchange, anti-β2m ELISA; grade of peptide exchange yield
T1 construct: the tested peptide takes its place; also called peptide-receptive MHC molecules; MHC class I
Text: Candidate peptides for T cell based therapies according to the present invention were further tested for their MHC binding capacity (affinity). The individual peptide-MHC complexes were produced by UV-ligand exchange, where a UV-sensitive peptide is cleaved upon UV-irradiation, and exchanged with the peptide of interest as analyzed. Only peptide candidates that can effectively bind and stabilize the peptide-receptive MHC molecules prevent dissociation of the MHC complexes. To determine the yield of the exchange reaction, an ELISA was performed based on the detection of the light chain (β2m) of stabilized MHC complexes. The assay was performed as generally described in Rodenko et al. (Rodenko et al., 2006).
96 well MAXISorp plates (NUNC) were coated over night with 2 ug/ml streptavidin in PBS at room temperature, washed 4× and blocked for 1h at 37° C. in 2% BSA containing blocking buffer. Refolded HLA-A*02:01/MLA-001 monomers served as standards, covering the range of 15-500 ng/ml. Peptide-MHC monomers of the UV-exchange reaction were diluted 100 fold in blocking buffer. Samples were incubated for 1 h at 37° C., washed four times, incubated with 2 ug/ml HRP conjugated anti-β2m for 1h at 37° C., washed again and detected with TMB solution that is stopped with […]. Absorption was measured at 450 nm. Candidate peptides that show a high exchange yield (preferably higher than 50%, most preferred higher than 75%) are generally preferred for a generation and production of antibodies or fragments thereof, and/or T cell receptors or fragments thereof, as they show sufficient avidity to the MHC molecules and prevent dissociation of the MHC complexes.

peptide exchange yield [%] | Binder
≥ 75 | ILASVILNV [ILASVILNV (SEQ ID NO: 109)]
20 to 50 | YAFPKAVSV [YAFPKAVSV (SEQ ID NO: 147)]
50 to 75 | ILLAEGRLVNL [ILLAEGRLVNL (SEQ ID NO: 134)]
50 to 75 | ALYDVRTILL [ALYDVRTILL (SEQ ID NO: 128)]
50 to 75 | ALLGKLDAINV [ALLGKLDAINV (SEQ ID NO: 125)]
50 to 75 | ALFEESGLIRI [ALFEESGLIRI (SEQ ID NO: 124)]
50 to 75 | KLGPEGELL [KLGPEGELL (SEQ ID NO: 137)]
50 to 75 | ALWHDAENQTVV [ALWHDAENQTVV (SEQ ID NO: 19)]
50 to 75 | LLSDVRFVL [LLSDVRFVL (SEQ ID NO: 112)]
50 to 75 | SLYGYLRGA [SLYGYLRGA (SEQ ID NO: 142)]
≥ 75 | KLFPGFEIETV [KLFPGFEIETV (SEQ ID NO: 136)]
20 to 50 | ALFVRLLAL [ALFVRLLAL (SEQ ID NO: 18)]
50 to 75 | SLLNPPETLNL [SLLNPPETLNL (SEQ ID NO: 140)]
50 to 75 | KVADLVLML [KVADLVLML (SEQ ID NO: 154)]
50 to 75 | GLIDYDTGIRL [GLIDYDTGIRL (SEQ ID NO: 17)]
20 to 50 | ALYYNPHLL [ALYYNPHLL (SEQ ID NO: 11)]
50 to 75 | FLWAGGRASYGV [FLWAGGRASYGV (SEQ ID NO: 132)]
50 to 75 | ILLTGTPAL [ILLTGTPAL (SEQ ID NO: 110)]
20 to 50 | FIDSSNPGL [FIDSSNPGL (SEQ ID NO: 13)]
50 to 75 | ALPKEDPTAV [ALPKEDPTAV (SEQ ID NO: 153)]
≥ 75 | ALSDLALHFL [ALSDLALHFL (SEQ ID NO: 127)]
≥ 75 | ALLEPEFILKA [ALLEPEFILKA (SEQ ID NO: 152)]
≥ 75 | SLIEKYFSV [SLIEKYFSV (SEQ ID NO: 158)]

peptide exchange yield [%] | Binder
50 to 75 | VLISGVVHEI [VLISGVVHEI (SEQ ID NO: 146)]
50 to 75 | TTFPRPVTV [TTFPRPVTV (SEQ ID NO: 145)]
50 to 75 | SLLDLHTKV [SLLDLHTKV (SEQ ID NO: 159)]
20 to 50 | KISTITPQI [KISTITPQI (SEQ ID NO: 123)]
50 to 75 | SLMDPNKFLLL [SLMDPNKFLLL (SEQ ID NO: 115)]
≥ 75 | ALLSLDPAAV [ALLSLDPAAV (SEQ ID NO: 126)]
50 to 75 | FILANEHNV [FILANEHNV (SEQ ID NO: 15)]
≥ 75 | VLLPDERTISL [VLLPDERTISL (SEQ ID NO: 160)]
50 to 75 | VLGDDPQLMKV [VLGDDPQLMKV (SEQ ID NO: 119)]
≥ 75 | ALLDIIRSL [ALLDIIRSL (SEQ ID NO: 151)]
20 to 50 | YLHNQGIGV [YLHNQGIGV (SEQ ID NO: 148)]
50 to 75 | ILGTEDLIVEV [ILGTEDLIVEV (SEQ ID NO: 149)]
≥ 75 | SMMDPNHFL [SMMDPNHFL (SEQ ID NO: 116)]
50 to 75 | AQYKFVYQV [AQYKFVYQV (SEQ ID NO: 12)]
50 to 75 | LLLAAARLAAA [LLLAAARLAAA (SEQ ID NO: 111)]
20 to 50 | YLDEDTIYHL [YLDEDTIYHL (SEQ ID NO: 121)]
50 to 75 | GLIDIENPNRV [GLIDIENPNRV (SEQ ID NO: 20)]
50 to 75 | FIIDNPQDLKV [FIIDNPQDLKV (SEQ ID NO: 14)]
50 to 75 | LLLPPPPCPA [LLLPPPPCPA (SEQ ID NO: 156)]
50 to 75 | FGYDGDFYRA [FGYDGDFYRA (SEQ ID NO: 2)]
50 to 75 | FLIEEQKIVV [FLIEEQKIVV (SEQ ID NO: 131)]
50 to 75 | NIFPNPEATFV [NIFPNPEATFV (SEQ ID NO: 138)]
50 to 75 | FVYGGPQVQL [FVYGGPQVQL (SEQ ID NO: 107)]

peptide exchange yield [%] | Binder
50 to 75 | KLDDTYIKA [KLDDTYIKA (SEQ ID NO: 135)]
50 to 75 | ALYEKDNTYL [ALYEKDNTYL (SEQ ID NO: 129)]
50 to 75 | FLQPDLDSL [FLQPDLDSL (SEQ ID NO: 104)]
50 to 75 | SIDRNPPQL [SIDRNPPQL (SEQ ID NO: 139)]
50 to 75 | GLIDYDTGI [GLIDYDTGI (SEQ ID NO: 16)]
20 to 50 | VLLDKIKNL [VLLDKIKNL (SEQ ID NO: 10)]
20 to 50 | FVDTRTLL [FVDTRTLL (SEQ ID NO: 1)]
50 to 75 | SLFPHNPQFI [SLFPHNPQFI (SEQ ID NO: 114)]
50 to 75 | MLLEIPYMAA [MLLEIPYMAA (SEQ ID NO: 157)]
20 to 50 | TAVALLRLL [TAVALLRLL (SEQ ID NO: 144)]
50 to 75 | TLWYRPPEL [TLWYRPPEL (SEQ ID NO: 118)]
50 to 75 | FVWSGTAEA [FVWSGTAEA (SEQ ID NO: 106)]
≥ 75 | MQAPRAALVFA [MQAPRAALVFA (SEQ ID NO: 122)]
50 to 75 | LLLDPDTAVLKL [LLLDPDTAVLKL (SEQ ID NO: 155)]
≥ 75 | ALFQPHLINV [ALFQPHLINV (SEQ ID NO: 150)]
50 to 75 | FLFGEEPSKL [FLFGEEPSKL (SEQ ID NO: 130)]
20 to 50 | ILDDVSLTHL [ILDDVSLTHL (SEQ ID NO: 133)]
50 to 75 | SVDGVIKEV [SVDGVIKEV (SEQ ID NO: 117)]
50 to 75 | YLPDIIKDQKA [YLPDIIKDQKA (SEQ ID NO: 161)]
50 to 75 | LMMSEDRISL [LMMSEDRISL (SEQ ID NO: 113)]
50 to 75 | FLSEVFHQA [FLSEVFHQA (SEQ ID NO: 105)]
